These results are taken from publication PMC6786869.

Experiment [1] concerns the target Wild-type Als1p (Candida albicans cell adhesion protein Als1p), V5-tagged, displayed on the surface of S. cerevisiae cells (Candida albicans) (UniProt Q5A8T4). Nature of the experiment: single-cell force spectroscopy (AFM); one live yeast cell on a polydopamine-coated tipless cantilever brought repeatedly into contact with another cell on a hydrophobic substrate; PBS, 20 C; 500 adhesion-rupture trials per cell pair.

The target of experiment [2] is Als1p with the V326N mutation, V5-tagged, displayed on the surface of S. cerevisiae cells (Candida albicans) (UniProt Q5A8T4). The description is as above.

For “Wild-type Als1p (Candida albicans cell adhesion protein Als1p), V5-tagged, displayed on the surface of S. cerevisiae cells (from UniProt Q5A8T4 18-1238) (natural protein)”, in experiment [1], the % of cell pairs binding is 97%, the mean maximum rupture force per pair came to 3330 pN and the mean rupture force is 1510 pN. In experiment [2], this substance displayed a % of cell pairs binding of 33%, a mean maximum rupture force per pair of 953 pN and a mean rupture force of 483 pN.
As for “Als1p with the V326N mutation, V5-tagged, displayed on the surface of S. cerevisiae cells (from UniProt Q5A8T4 18-1238) (natural protein)”, in experiment [2], the % of cell pairs binding came out at 7%, the mean maximum rupture force per pair came out at 667 pN and the mean rupture force worked out at 517 pN.
